Test results taken from patent US20110319869A1 (US Dept. of Health and Human Services, published 2011).

B1: MUC-1 peptide P-92 (native), ATWGQDVTSV (peptide)
peptide: ATWGQDVTSV
notes: Synthetic 10-mer from the non-VNTR region of MUC-1

Molecular target: T1, HLA-A2 molecule (human)
T1 construct: also called HLA-A2 on T2 cells (174CEM-T2; T2A2 cells)
Assay: T2 cell binding assay, flow cytometry with anti-HLA-A2 mAb
Experimental: (§1) In this assay, increased stability (accumulation) of HLA-A2 molecules on the surface of T2 cells as a consequence of peptide binding is measured by increased binding of antibody directed against HLA-A2 molecule. Briefly, 1×10⁶ cells in serum-free Iscove's modified Dulbecco's complete medium were incubated with peptides at a concentration of 50 μg/ml in 24-well culture plates at 37° C. in 5% CO₂. Flow cytometry for peptide binding was performed using T2 cells and single-color analysis. After cells were washed three times in DPBS, as described above, they were incubated for 1 h with a 1:100 dilution of HLA-A2—specific MAb (One Lambda, Inc.) per 10⁶ cells. UPC-10 (Cappel/Organon Teknika) was used as isotype control. The cells were then washed three times and incubated with 1:100 dilution of FITC-labeled anti-mouse IgG (BD Biosciences). Analysis was conducted with the FACScan, as described above. Cells were maintained on ice during all cell preparation and staining.
The primary amino acid sequence of human MUC-1 was analyzed for consensus motifs for novel HLA-A2 binding peptides.

binding result | Molecule
no binding (tested: 50 µg/ml peptide) | YRPGENLNL [NCA peptide, YRPGENLNL]

Molecular target: T1, HLA-A2 molecule
Assay: T2 cell binding assay: flow cytometry of surface HLA-A2 with anti-HLA-A2 mAb after incubation with peptide (50 µg/ml)
Experimental: as §1, with “staining. […]” for “staining.”

T2 binding (relative fluorescence) | Molecule
431 | ALLVLVCVLV [MUC-1 peptide P-1162, ALLVLVCVLV]
369 | VLVALAIVYL [MUC-1 peptide P-1169, VLVALAIVYL]
591 | WGQDVTSVPV [MUC-1 peptide P-94, WGQDVTSVPV]
482 | REGTINVHDV [MUC-1 peptide P-1108, REGTINVHDV]
461 | LAFREGTINV [MUC-1 peptide P-1105, LAFREGTINV]
433 | LQRDISEMFL [MUC-1 peptide P-1069, LQRDISEMFL]
740 | B1
442 | TLASHSTKTD [MUC-1 peptide P-1104, TLASHSTKTD]
467 | GTQSPFFLLL [MUC-1 peptide P-4, GTQSPFFLLL]
422 | TISDVSVSDV [MUC-1 peptide P-1135, TISDVSVSDV]

Molecular target: T1, HLA-A2 molecule
Assay: T2 cell binding assay: flow cytometry of surface HLA-A2 with anti-HLA-A2 mAb; negative control

T2 binding (relative fluorescence) (relative fluorescence values) | Molecule
200 | CEA CAP-7 (HLA-A3 binding peptide)

Molecular target: T1, HLA-A2 molecule
Assay: T2 cell binding assay: flow cytometry of surface HLA-A2 with anti-HLA-A2 mAb after incubation with peptide (50 µg/ml)
Remark: another data set of the same source
Experimental: as §1

T2 binding (relative fluorescence) | Molecule
510 relative fluorescence values | B1
821 relative fluorescence values | ALWGQDVTSV (also called L-93; MUC-1 peptide) [MUC-1 agonist peptide P-93L, ALWGQDVTSV]
723 relative fluorescence values | AMWGQDVTSV [MUC-1 peptide analogue M-93]
325 relative fluorescence values | AMWGQDVTSL [MUC-1 peptide analogue M-93/L-101]
280 relative fluorescence values | AIWGQDVTSL [MUC-1 peptide analogue I-93/L-101]
823 relative fluorescence values | AIWGQDVTSV (also called I-93) [MUC-1 peptide analogue P-93I]
736 relative fluorescence values | ALWGQDVTSL [MUC-1 peptide analogue L-93/L-101]
